Assay results as given in the supplement of paper PMC5998384.

Columns and labels:
HeLa Kyoto [1] = experiment: solubility in G1/S (NP-40 vs SDS abundance) (log2 ratio); higher = more soluble; details: cell cycle stage: G1/S
HeLa Kyoto [2] = experiment: thermal stability score vs G1/S (z-score of summed log2 fold changes over temperatures); higher = more thermally stable than in G1/S
HeLa Kyoto [3] = experiment: melting temperature (median over replicates), in situ; higher = more thermally stable
HeLa Kyoto [4] = experiment: solubility change mitosis vs G1/S (difference of NP-40 vs SDS log2 ratios) (log2 ratio difference); higher = more soluble in mitosis
[5] = cell cycle stage: early G1 (4.5 h after nocodazole release)
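Wherever melting temperature (median over replicates), in situ is given: HeLa Kyoto cells synchronized by double thymidine or nocodazole block, proteins quantified by TMT10plex mass spectrometry, three independent biological replicates.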
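Wherever solubility change mitosis vs G1/S (difference of NP-40 vs SDS log2 ratios) is given: synchronized HeLa Kyoto cells (double thymidine block for G1/S, nocodazole release for mitosis), protein amounts in NP-40 versus SDS lysates quantified by mass spectrometry, three biological replicates.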
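Wherever solubility in G1/S (NP-40 vs SDS abundance) is given: HeLa Kyoto cells arrested at G1/S by double thymidine block, proteins quantified by TMT10plex mass spectrometry in mild NP-40 versus SDS extracts, three biological replicates.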
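Wherever thermal stability score vs G1/S (z-score of summed log2 fold changes over temperatures) is given: synchronized HeLa Kyoto cells, proteins quantified by TMT10plex mass spectrometry, three biological replicates, mitosis taken 0.5 h after nocodazole release, G1/S directly after double thymidine block.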

Sequence | solubility in G1/S (log2) (HeLa Kyoto [1]) | thermal stability score (HeLa Kyoto [2]; [5]) | thermal stability score (HeLa Kyoto [2]; cell cycle stage: mitosis) | melting temperature (HeLa Kyoto [3]; cell cycle stage: G1/S) [°C] | melting temperature (HeLa Kyoto [3]; cell cycle stage: mitosis) [°C] | solubility change mitosis (log2) (HeLa Kyoto [4])
METQLQSIFEEVVKTEVIEEAFPGMFMDTPEDEKTKLISCLGAFRQFWGGLSQESHEQCIQWIVKFIHGQHSPKRISFLYDCLAMAVETGLLPPRLVCESLINSDTLEWERTQLWALTFKLVRKIIGGVDYKGVRDLLKVILEKILTIPNTVSSAVVQQLLAAREVIAYILERNACLLPAYFAVTEIRKLYPEGKLPHWLLGNLVSDFVDTFRPTARINSICGRCSLLPVVNNSGAICNSWKLDPATLRFPLKGLLPYDKDLFEPQTALLRYVLEQPYSRDMVCNMLGLNKQHKQRCPVLEDQLVDLVVYAMERSETEEKFDDGGTSQLLWQHLSSQLIFFVLFQFASFPHMVLSLHQKLAGRGLIKGRDHLMWVLLQFISGSIQKNALADFLPVMKLFDLLYPEKEYIPVPDINKPQSTHAFAMTCIWIHLNRKAQNDNSKLQIPIPHSLRLHHEFLQQSLRNKSLQMNDYKIALLCNAYSTNSECFTLPMGALVETIYGNGIMRIPLPGTNCMASGSITPLPMNLLDSLTVHAKMSLIHSIATRVIKLAHAKSSVALAPALVETYSRLLVYMEIESLGIKGFISQLLPTVFKSHAWGILHTLLEMFSYRMHHIQPHYRVQLLSHLHTLAAVAQTNQNQLHLCVESTALRLITALGSSEVQPQFTRFLSDPKTVLSAESEELNRALILTLARATHVTDFFTGSDSIQGTWCKDILQTIMSFTPHNWASHTLSCFPGPLQAFFKQNNVPQESRFNLKKNVEEEYRKWKSMSNENDIITHFSMQGSPPLFLCLLWKMLLETDHINQIGYRVLERIGARALVAHVRTFADFLVYEFSTSAGGQQLNKCIEILNDMVWKYNIVTLDRLILCLAMRSHEGNEAQVCYFIIQLLLLKPNDFRNRVSDFVKENSPEHWLQNDWHTKHMNYHKKYPEKLYFEGLAEQVDPPVQIQSPYLPIYFGNVCLRFLPVFDIVIHRFLELLPVSKSLETLLDHLGGLYKFHDRPVTYLYNTLHYYEMHLRDRAFLKRKLVHAIIGSLKDNRPQGWCLSDTYLKCAMNAREENPWVPDDTYYCRLIGRLVDTMAGKSPGPFPNCDWRFNEFPNPAAHALHVTCVELMALAVSGKEVGNALLNVVLKSQPLVPRENITAWMNAIGLIITALPEPYWIVLHDRIVSVISSPSLTSETEWVGYPFRLFDFTACHQSYSEMSCSYTLALAHAVWHHSSIGQLSLIPKFLTEVLLPIVKTEFQLLYVYHLVGPFLQRFQQERTRCMIEIGVAFYDMLLNVDQCSTHLNYMDPICDFLYHMKYMFTGDSVKEQVEKIICNLKPALKLRLRFITHISKMEPAAVPPQAMNSGSPAPQSNQVPVSLPVTQ [MED23] | -0.217 | 1.35 | 1.94 | 50.5 | 51.1 | -0.141
METSAPRAGSQVVATTARHSAAYRADPLRVSSRDKLTEMAASSQGNFEGNFESLDLAEFAKKQPWWRKLFGQESGPSAEKYSVATQLFIGGVTGWCTGFIFQKVGKLAATAVGGGFFLLQLANHTGYIKVDWQRVEKDMKKAKEQLKIRKSNQIPTEVRSKAEEVVSFVKKNVLVTGGFFGGFLLGMAS [FUNDC2] | 0.0627 | -0.847 | -1.68 | 58.2 | 55.9 | -0.0574
MEVLAAETTSQQERLQAIAEKRKRQAEIENKRRQLEDERRQLQHLKSKALRERWLLEGTPSSASEGDEDLRRQMQDDEQKTRLLEDSVSRLEKEIEVLERGDSAPATAKENAAAPSPVRAPAPSPAKEERKTEVVMNSQQTPVGTPKDKRVSNTPLRTVDGSPMMKAAMYSVEITVEKDKVTGETRVLSSTTLLPRQPLPLGIKVYEDETKVVHAVDGTAENGIHPLSSSEVDELIHKADEVTLSEAGSTAGAAETRGAVEGAARTTPSRREITGVQAQPGEATSGPPGIQPGQEPPVTMIFMGYQNVEDEAETKKVLGLQDTITAELVVIEDAAEPKEPAPPNGSAAEPPTEAASREENQAGPEATTSDPQDLDMKKHRCKCCSIM [PALM] | 0.0461 | -0.779 | -1.02 | 55.2 | 57 | 0.116
MEVPPPAPRSFLCRALCLFPRVFAAEAVTADSEVLEERQKRLPYVPEPYYPESGWDRLRELFGKDEQQRISKDLANICKTAATAGIIGWVYGGIPAFIHAKQQYIEQSQAEIYHNRFDAVQSAHRAATRGFIRYGWRWGWRTAVFVTIFNTVNTSLNVYRNKDALSHFVIAGAVTGSLFRINVGLRGLVAGGIIGALLGTPVGGLLMAFQKYSGETVQERKQKDRKALHELKLEEWKGRLQVTEHLPEKIESSLQEDEPENDAKKIEALLNLPRNPSVIDKQDKD [TIMMDC1] | -0.03 | -2.95 | -2.24 | 55.6 | 55.2 | 0.01
MEVVPAEVNSLLPEEIMDTGITLVDDDSIEAVIVSSPIPMETELEEIVNINSTGDSTATPISTEPITVYSNHTNQVAVNTTITKADSNTTVKPAFPSGLQKLGAQTPVTISANQIILNKVSQTSDLKLGNQTLKPDGQKLILTTLGKSGSPIVLALPHSQLPQAQKVTTQAQSGDAKLPPQQIKVVTIGGRPEVKPVIGVSALTPGSQLINTTTQPSVLQTQQLKTVQIAKKPRTPTSGPVITKLIFAKPINSKAVTGQTTQVSPPVIAGRVLSQSTPGTPSKTITISESGVIGSTLNSTTQTPNKIAISPLKSPNKAVKSTVQTITVGGVSTSQFKTIIPLATAPNVQQIQVPGSKFHYVRLVTATSASSSTQPVSQNPSTNTQPLQQAKPVVVNTTPVRMSVPIVSAQAVKQVVPKPINPTSQIVTTSQPQQRLIMPATPLPQIQPNLTNLPPGTVLAPAPGTGNVGYAVLPAQYVTQLQQSSYVSIASNSTFTGTSGIQTQARLPFNGIIPSESASRPRKPCNCTKSLCLKLYCDCFANGEFCNNCNCTNCYNNLEHENERQKAIKACLDRNPEAFKPKIGKGKEGESDRRHSKGCNCKRSGCLKNYCECYEAKIMCSSICKCIGCKNFEESPERKTLMHLADAAEVRVQQQTAAKTKLSSQISDLLTRPTPALNSGGGKLPFTFVTKEVAEATCNCLLAQAEQADKKGKSKAAAERMILEEFGRCLMSVINSAGKAKSDPCAMNC [LIN54] | 0.15 | 0.22 | 0.778 | 46.4 | 50.1 | -0.11
MFAKAFRVKSNTAIKGSDRRKLRADVTTAFPTLGTDQVSELVPGKEELNIVKLYAHKGDAVTVYVSGGNPILFELEKNLYPTVYTLWSYPDLLPTFTTWPLVLEKLVGGADLMLPGLVMPPAGLPQVQKGDLCAISLVGNRAPVAIGVAAMSTAEMLTSGLKGRGFSVLHTYQDHLWRSGNKSSPPSIAPLALDSADLSEEKGSVQMDSTLQGDMRHMTLEGEEENGEVHQAREDKSLSEAPEDTSTRGLNQDSTDSKTLQEQMDELLQQCFLHALKCRVKKADLPLLTSTFLGSHMFSCCPEGRQLDIKKSSYKKLSKFLQQMQQEQIIQVKELSKGVESIVAVDWKHPRITSFVIPEPSPTSQTIQEGSREQPYHPPDIKPLYCVPASMTLLFQESGHKKGSFLEGSEVRTIVINYAKKNDLVDADNKNLVRLDPILCDCILEKNEQHTVMKLPWDSLLTRCLEKLQPAYQVTLPGQEPIVKKGRICPIDITLAQRASNKKVTVVRNLEAYGLDPYSVAAILQQRCQASTTVNPAPGAKDSLQVQIQGNQVHHLGWLLLEEYQLPRKHIQGLEKALKPGKKK [EIF2D] | 0.234 | 0.861 | 1.5 | 48.3 | 48.3 | -0.0853
MFAKATRNFLREVDADGDLIAVSNLNDSDKLQLLSLVTKKKRFWCWQRPKYQFLSLTLGDVLIEDQFPSPVVVESDFVKYEGKFANHVSGTLETALGKVKLNLGGSSRVESQSSFGTLRKQEVDLQQLIRDSAERTINLRNPVLQQVLEGRNEVLCVLTQKITTMQKCVISEHMQVEEKCGGIVGIQTKTVQVSATEDGNVTKDSNVVLEIPAATTIAYGVIELYVKLDGQFEFCLLRGKQGGFENKKRIDSVYLDPLVFREFAFIDMPDAAHGISSQDGPLSVLKQATLLLERNFHPFAELPEPQQTALSDIFQAVLFDDELLMVLEPVCDDLVSGLSPTVAVLGELKPRQQQDLVAFLQLVGCSLQGGCPGPEDAGSKQLFMTAYFLVSALAEMPDSAAALLGTCCKLQIIPTLCHLLRALSDDGVSDLEDPTLTPLKDTERFGIVQRLFASADISLERLKSSVKAVILKDSKVFPLLLCITLNGLCALGREHS [DFNA5] | -0.0213 | 1.33 | 2.07 | 52.8 | 53.7 | -0.126
MFCEKAMELIRELHRAPEGQLPAFNEDGLRQVLEEMKALYEQNQSDVNEAKSGGRSDLIPTIKFRHCSLLRNRRCTVAYLYDRLLRIRALRWEYGSVLPNALRFHMAAEEMEWFNNYKRSLATYMRSLGGDEGLDITQDMKPPKSLYIEVRCLKDYGEFEVDDGTSVLLKKNSQHFLPRWKCEQLIRQGVLEHILS [GINS1] | -0.0577 | -0.0841 | -0.424 | 52.5 | 51.7 | -0.00378
MFGPAKGRHFGVHPAPGFPGGVSQQAAGTKAGPAGAWPVGSRTDTMWRLRCKAKDGTHVLQGLSSRTRVRELQGQIAAITGIAPGGQRILVGYPPECLDLSNGDTILEDLPIQSGDMLIIEEDQTRPRSSPAFTKRGASSYVRETLPVLTRTVVPADNSCLFTSVYYVVEGGVLNPACAPEMRRLIAQIVASDPDFYSEAILGKTNQEYCDWIKRDDTWGGAIEISILSKFYQCEICVVDTQTVRIDRFGEDAGYTKRVLLIYDGIHYDPLQRNFPDPDTPPLTIFSSNDDIVLVQALELADEARRRRQFTDVNRFTLRCMVCQKGLTGQAEAREHAKETGHTNFGEV [YOD1] | 0.0787 | 0.646 | 1.06 | 50.2 | 50.2 | 0.0334
MFGRSRSWVGGGHGKTSRNIHSLDHLKYLYHVLTKNTTVTEQNRNLLVETIRSITEILIWGDQNDSSVFDFFLEKNMFVFFLNILRQKSGRYVCVQLLQTLNILFENISHETSLYYLLSNNYVNSIIVHKFDFSDEEIMAYYISFLKTLSLKLNNHTVHFFYNEHTNDFALYTEAIKFFNHPESMVRIAVRTITLNVYKVSLDNQAMLHYIRDKTAVPYFSNLVWFIGSHVIELDDCVQTDEEHRNRGKLSDLVAEHLDHLHYLNDILIINCEFLNDVLTDHLLNRLFLPLYVYSLENQDKGGERPKISLPVSLYLLSQVFLIIHHAPLVNSLAEVILNGDLSEMYAKTEQDIQRSSAKPSIRCFIKPTETLERSLEMNKHKGKRRVQKRPNYKNVGEEEDEEKGPTEDAQEDAEKAKGTEGGSKGIKTSGESEEIEMVIMERSKLSELAASTSVQEQNTTDEEKSAAATCSESTQWSRPFLDMVYHALDSPDDDYHALFVLCLLYAMSHNKGMDPEKLERIQLPVPNAAEKTTYNHPLAERLIRIMNNAAQPDGKIRLATLELSCLLLKQQVLMSAGCIMKDVHLACLEGAREESVHLVRHFYKGEDIFLDMFEDEYRSMTMKPMNVEYLMMDASILLPPTGTPLTGIDFVKRLPCGDVEKTRRAIRVFFMLRSLSLQLRGEPETQLPLTREEDLIKTDDVLDLNNSDLIACTVITKDGGMVQRFLAVDIYQMSLVEPDVSRLGWGVVKFAGLLQDMQVTGVEDDSRALNITIHKPASSPHSKPFPILQATFIFSDHIRCIIAKQRLAKGRIQARRMKMQRIAALLDLPIQPTTEVLGFGLGSSTSTQHLPFRFYDQGRRGSSDPTVQRSVFASVDKVPGFAVAQCINQHSSPSLSSQSPPSASGSPSGSGSTSHCDSGGTSSSSTPSTAQSPADAPMSPELPKPHLPDQLVIVNETEADSKPSKNVARSAAVETASLSPSLVPARQPTISLLCEDTADTLSVESLTLVPPVDPHSLRSLTGMPPLSTPAAACTEPVGEEAACAEPVGTAED [CLEC16A] | -0.224 | -1.42 | -1.87 | 55.7 | 57.4 | -0.241
